From PMC9073325

Substrate: Nc1ncnc2c1ncn2[C@@H]1O[C@H](COP(=O)(O)OP(=O)(O)OP(=O)(O)O)[C@@H](O)[C@H]1O
Assay: purified protein
Conditions: pH 7.0; 25.0 °C

B1: SOBIR1-KD (Arabidopsis thaliana) (protein)
chain: SIFSPLIKKAEDLAFLENEEALASLEIIGRGGCGEVFKAELPGSNGKIIAVKKVIQPPKDADELTDEDSKFLNKKMRQIRSEINTVGHIRHRNLLPLLAHVSRPECHYLVYEYMEKGSLQDILTDVQAGNQELMWPARHKIALGIAAGLEYLHMDHNPRIIHRDLKPANVLLDDDMEARISDFGLAKAMPDAVTHITTSHVAGTVGYIAPEFYQTHKFTDKCDIYSFGVILGILVIGKLPSDEFFQHTDEMSLIKWMRNIITSENPSLAIDPKLMDQGFDEQMLLVLKIACYCTLDDPKQRPNSKDVRTMLSQIKH
Work on B1 yielded a Km of 19.92 ± 0.69 µM and a kcat of 0.660 ± 0.006 s⁻¹.
